Data taken from patent US20250295809A1.

Biological target: HER2 on cancer cell lines (BT-474, SK-BR-3, MDA-MB-361-luc) (human) (UniProt P04626)
Test: cell-based or functional assay

Work on ZW-25 bispecific antibody yielded an Emax, BT-474 cell proliferation (CellTiter-Glo 2.0, 4 days) of 41.5%, an IC50, BT-474 cell proliferation (CellTiter-Glo 2.0, 4 days) of 0.125 µg/mL and an IC50, SK-BR-3 cell proliferation (CellTiter-Glo 2.0, 4 days) of 0.431 µg/mL.
